B1: CPEB3 Ribozyme (parent)
chain: GGGGGCCACAGCAGAAGCGUUCACGUCGCGGCCCCUGUCAGAUUCUGGUGAAUCUGCGAAUUCUGCUGU

Variants of: B1
Assay: self-cleavage, relative activity (ratio to wild type); higher = more cleavage; co-transcriptional

Variant	self-cleavage
C29U U49C	0.411
C29U U49G	0.514
C29U U49A	0.542
C29U C35U	0.314
G30C C63U	0.645
G30C C63G	0.329
G30A G47C	0.93
C29U G30U	0.169
C29U G30C	0.232
G30C A52G	0.724
G30C A52C	0.506
G30C A52U	0.556
G30C A59C	0.306
G30C A59G	0.708
G30C A59U	0.295
C29U U61G	0.218
C29U U61A	0.244
C29U U38G	0.238
C29U U38C	0.189
G30C C34U	0.6
G30C C34A	0.243
G30A U38G	0.274
G30A U38C	0.531
C29U G68U	0.515

Variant	self-cleavage
C29U G68A	0.586
C29G U69A	0.757
C29G U69C	0.892
G30C U55C	0.388
G30C U55A	0.466
G30C U55G	0.323
G30U C54G	0.248
G30U C54A	0.248
G30U C54U	0.339
G30A A40C	0.276
G30A A40G	0.754
G30A A40U	0.461
C29U	0.557
G30U U61C	0.243
G30A C39G	0.596
G30A C39U	0.598
C29G U61A	0.57
G30A C66U	0.861
G30A C66G	0.61
C29G U62G	0.206
C29G U62A	0.254
C29G U62C	0.251
G31A A42G	0.794
G30U A59C	0.172

Variant	self-cleavage
G30U A59U	0.222
G30U A59G	0.309
G30A C34U	0.741
G30U U67A	0.735
G30U C32A	0.175
G30A G65A	0.627
G30A G65C	0.353
G30A G31C	0.254
G30A G50A	0.927
G30A G50C	0.774
C29G U44C	0.314
C29G U44A	0.338
G30C U69G	0.96
G30C U69C	0.995
G30C U69A	0.88
C29U U67G	0.359
C29U U67C	0.308
C29U U67A	0.21
C29U U36A	0.132
G30A U49G	0.674
G30A U49C	0.909
C29G U36G	0.236
G30A	0.913
G30C	0.682

Variant	self-cleavage
G30U	0.411
G30C G68U	0.938
G30C G68C	0.905
G30C G68A	0.899
G30A U46A	0.723
G30A U46C	0.866
G30U U43C	0.38
G30U U43G	0.281
G30U U43A	0.311
G30C C33U	0.576
G30C G58C	0.494
G30C G58A	0.359
G30C G58U	0.579
G30A A42G	0.817
G30A C63A	0.413
G30C C57G	0.223
C29U A51G	0.537
C29U C33G	0.226
C29U C33A	0.355
C29U U69A	0.619
C29U U69C	0.834
C29U U69G	0.737
G30U G37A	0.159
G30U G37C	0.186

Variant	self-cleavage
G31A	0.931
G30U C34G	0.193
G30U C34U	0.323
G30C C66U	0.666
G30C C66G	0.396
G30C C66A	0.397
G30C G41A	0.298
G30A C32A	0.245
G30A C32U	0.714
G30A C32G	0.261
G30A U55G	0.453
G30A U55C	0.519
C29U C63U	0.253
G30C A42C	0.441
G30C A42G	0.604
G30U G41A	0.216
G30U G41U	0.229
C29U A59C	0.237
C29U A59G	0.58
G30U A52C	0.395
G30U A52G	0.287
C29U C45U	0.505
C29U C45G	0.404
C29U C45A	0.307

Variant	self-cleavage
G30A G56C	0.413
G30A G56A	0.713
G30A G56U	0.693
G30U U49C	0.456
G30U U49A	0.365
G30U U49G	0.352
G30U C66G	0.216
G30U C66U	0.331
G30U C66A	0.278
G30C G65C	0.431
C29G U49A	0.521
C29G U49G	0.65
C29U U64C	0.371
G30U G58A	0.284
G30U G58U	0.439
G30U G58C	0.302
G30U U46A	0.44
G30U U46C	0.39
G30A A59U	0.361
G30C C54G	0.296
G30C C54U	0.673
G30C U53C	0.44
G30C U53G	0.46
C29G U53A	0.308

Variant	self-cleavage
C29G U53G	0.389
C29G U53C	0.193
G30U A51G	0.4
G30U A51U	0.345
G30U A51C	0.306
G30U C63G	0.261
G30U C63A	0.181
G30U C35G	0.213
G30U C35A	0.191
G30C G48A	0.694
G30C G48C	0.642
C29U C57A	0.154
C29U C57U	0.227
C29U C57G	0.177
G30U U38A	0.201
G30U U38G	0.153
G30U U38C	0.253
G30A C45U	0.884
G30A C45G	0.73
G30A U62C	0.497
G30A C35A	0.207
C29U G58A	0.372
C29U G58U	0.641
